The source of these data is patent US20140357577A1, “HIV Membrane Fusion Inhibitors” (priority 2011, published 2014).

The labels stand for the following.
B1: peptide 85 (peptide)
peptide: Butyryl-ECYLACIEELIRKAQEQQEKNEAALR-NH2
modifications: linker 2-6 via pXylylene
SMILES: CCCC(=O)N[C@@H](CCC(=O)O)C(=O)N[C@H]1CSCc2ccc(cc2)CSC[C@@H](C(=O)N[C@H](C(=O)N[C@@H](CCC(=O)O)C(=O)N[C@@H](CCC(=O)O)C(=O)N[C@@H](CC(C)C)C(=O)N[C@H](C(=O)N[C@@H](CCCNC(=N)N)C(=O)N[C@@H](CCCCN)C(=O)N[C@@H](C)C(=O)N[C@@H](CCC(N)=O)C(=O)N[C@@H](CCC(=O)O)C(=O)N[C@@H](CCC(N)=O)C(=O)N[C@@H](CCC(N)=O)C(=O)N[C@@H](CCC(=O)O)C(=O)N[C@@H](CCCCN)C(=O)N[C@@H](CC(N)=O)C(=O)N[C@@H](CCC(=O)O)C(=O)N[C@@H](C)C(=O)N[C@@H](C)C(=O)N[C@@H](CC(C)C)C(=O)N[C@@H](CCCNC(=N)N)C(N)=O)[C@@H](C)CC)[C@@H](C)CC)NC(=O)[C@H](C)NC(=O)[C@H](CC(C)C)NC(=O)[C@H](Cc2ccc(O)cc2)NC1=O
B2: peptide 88 (peptide)
peptide: Suc-ECYLRCIEELIRKAQEQQEKNEAALRGSGK(Palmitoyl)-NH2
modifications: linker 2-6 via pXylylene
SMILES: CCCCCCCCCCCCCCCC(=O)NCCCC[C@H](NC(=O)CNC(=O)[C@H](CO)NC(=O)CNC(=O)[C@H](CCCNC(=N)N)NC(=O)[C@H](CC(C)C)NC(=O)[C@H](C)NC(=O)[C@H](C)NC(=O)[C@H](CCC(=O)O)NC(=O)[C@H](CC(N)=O)NC(=O)[C@H](CCCCN)NC(=O)[C@H](CCC(=O)O)NC(=O)[C@H](CCC(N)=O)NC(=O)[C@H](CCC(N)=O)NC(=O)[C@H](CCC(=O)O)NC(=O)[C@H](CCC(N)=O)NC(=O)[C@H](C)NC(=O)[C@H](CCCCN)NC(=O)[C@H](CCCNC(=N)N)NC(=O)[C@@H](NC(=O)[C@H](CC(C)C)NC(=O)[C@H](CCC(=O)O)NC(=O)[C@H](CCC(=O)O)NC(=O)[C@@H](NC(=O)[C@@H]1CSCc2ccc(cc2)CSC[C@H](NC(=O)[C@H](CCC(=O)O)NC(=O)CCC(=O)O)C(=O)N[C@@H](Cc2ccc(O)cc2)C(=O)N[C@@H](CC(C)C)C(=O)N[C@@H](CCCNC(=N)N)C(=O)N1)[C@@H](C)CC)[C@@H](C)CC)C(N)=O
B3: peptide 5 (peptide)
peptide: Ac-ANYAALIEALIRKAQEQQEKNEAALR-NH2
B4: peptide 80 (peptide)
peptide: Ac-A[hCys]YAA[hCys]IEALIRKAQEQQEKNEAALR-NH2
modifications: linker 2-6 via B21
SMILES: CC[C@H](C)[C@H](NC(=O)[C@@H]1CCSCc2ccc3ccc(cc3c2)CSCC[C@H](NC(=O)[C@H](C)NC(C)=O)C(=O)N[C@@H](Cc2ccc(O)cc2)C(=O)N[C@@H](C)C(=O)N[C@@H](C)C(=O)N1)C(=O)N[C@@H](CCC(=O)O)C(=O)N[C@@H](C)C(=O)N[C@@H](CC(C)C)C(=O)N[C@H](C(=O)N[C@@H](CCCNC(=N)N)C(=O)N[C@@H](CCCCN)C(=O)N[C@@H](C)C(=O)N[C@@H](CCC(N)=O)C(=O)N[C@@H](CCC(=O)O)C(=O)N[C@@H](CCC(N)=O)C(=O)N[C@@H](CCC(N)=O)C(=O)N[C@@H](CCC(=O)O)C(=O)N[C@@H](CCCCN)C(=O)N[C@@H](CC(N)=O)C(=O)N[C@@H](CCC(=O)O)C(=O)N[C@@H](C)C(=O)N[C@@H](C)C(=O)N[C@@H](CC(C)C)C(=O)N[C@@H](CCCNC(=N)N)C(N)=O)[C@@H](C)CC
B5: peptide 91 (peptide)
peptide: Pentanoyl-ECYLRCIEELIRKAQEQQEKNEAALR-NH2
modifications: linker 2-6 via pXylylene
SMILES: CCCCC(=O)N[C@@H](CCC(=O)O)C(=O)N[C@H]1CSCc2ccc(cc2)CSC[C@@H](C(=O)N[C@H](C(=O)N[C@@H](CCC(=O)O)C(=O)N[C@@H](CCC(=O)O)C(=O)N[C@@H](CC(C)C)C(=O)N[C@H](C(=O)N[C@@H](CCCNC(=N)N)C(=O)N[C@@H](CCCCN)C(=O)N[C@@H](C)C(=O)N[C@@H](CCC(N)=O)C(=O)N[C@@H](CCC(=O)O)C(=O)N[C@@H](CCC(N)=O)C(=O)N[C@@H](CCC(N)=O)C(=O)N[C@@H](CCC(=O)O)C(=O)N[C@@H](CCCCN)C(=O)N[C@@H](CC(N)=O)C(=O)N[C@@H](CCC(=O)O)C(=O)N[C@@H](C)C(=O)N[C@@H](C)C(=O)N[C@@H](CC(C)C)C(=O)N[C@@H](CCCNC(=N)N)C(N)=O)[C@@H](C)CC)[C@@H](C)CC)NC(=O)[C@H](CCCNC(=N)N)NC(=O)[C@H](CC(C)C)NC(=O)[C@H](Cc2ccc(O)cc2)NC1=O
B6: peptide 89 (peptide)
peptide: Ac-ACYAACIEALIRAAQEQQEKNEAALR-NH2
modifications: linker 2-6 via 1,4‑dimethylnaphthyl
B7: peptide 90 (peptide)
peptide: Suc-ECYLACIEELIRKAQEQQEKNEAALR-NH2
modifications: linker 2-6 via pXylylene
SMILES: CC[C@H](C)[C@H](NC(=O)[C@@H]1CSCc2ccc(cc2)CSC[C@H](NC(=O)[C@H](CCC(=O)O)NC(=O)CCC(=O)O)C(=O)N[C@@H](Cc2ccc(O)cc2)C(=O)N[C@@H](CC(C)C)C(=O)N[C@@H](C)C(=O)N1)C(=O)N[C@@H](CCC(=O)O)C(=O)N[C@@H](CCC(=O)O)C(=O)N[C@@H](CC(C)C)C(=O)N[C@H](C(=O)N[C@@H](CCCNC(=N)N)C(=O)N[C@@H](CCCCN)C(=O)N[C@@H](C)C(=O)N[C@@H](CCC(N)=O)C(=O)N[C@@H](CCC(=O)O)C(=O)N[C@@H](CCC(N)=O)C(=O)N[C@@H](CCC(N)=O)C(=O)N[C@@H](CCC(=O)O)C(=O)N[C@@H](CCCCN)C(=O)N[C@@H](CC(N)=O)C(=O)N[C@@H](CCC(=O)O)C(=O)N[C@@H](C)C(=O)N[C@@H](C)C(=O)N[C@@H](CC(C)C)C(=O)N[C@@H](CCCNC(=N)N)C(N)=O)[C@@H](C)CC
B8: peptide 84 (peptide)
peptide: Ac-ACYAACIEALIRAAREQQEKNEAALR-NH2
modifications: linker 2-6 via pXylylene
SMILES: CC[C@H](C)[C@H](NC(=O)[C@H](CC(C)C)NC(=O)[C@H](C)NC(=O)[C@H](CCC(=O)O)NC(=O)[C@@H](NC(=O)[C@@H]1CSCc2ccc(cc2)CSC[C@H](NC(=O)[C@H](C)NC(C)=O)C(=O)N[C@@H](Cc2ccc(O)cc2)C(=O)N[C@@H](C)C(=O)N[C@@H](C)C(=O)N1)[C@@H](C)CC)C(=O)N[C@@H](CCCNC(=N)N)C(=O)N[C@@H](C)C(=O)N[C@@H](C)C(=O)N[C@@H](CCCNC(=N)N)C(=O)N[C@@H](CCC(=O)O)C(=O)N[C@@H](CCC(N)=O)C(=O)N[C@@H](CCC(N)=O)C(=O)N[C@@H](CCC(=O)O)C(=O)N[C@@H](CCCCN)C(=O)N[C@@H](CC(N)=O)C(=O)N[C@@H](CCC(=O)O)C(=O)N[C@@H](C)C(=O)N[C@@H](C)C(=O)N[C@@H](CC(C)C)C(=O)N[C@@H](CCCNC(=N)N)C(N)=O
B9: peptide 82 (peptide)
peptide: Suc-ECYLRCIEELIRKAQEQQEKNEAALRGSGC(cholesteryl‑oxycarbonylmethyl)-NH2
modifications: linker 2-6 via pXylylene
SMILES: CC[C@H](C)[C@H](NC(=O)[C@H](CC(C)C)NC(=O)[C@H](CCC(=O)O)NC(=O)[C@H](CCC(=O)O)NC(=O)[C@@H](NC(=O)[C@@H]1CSCc2ccc(cc2)CSC[C@H](NC(=O)[C@H](CCC(=O)O)NC(=O)CCC(=O)O)C(=O)N[C@@H](Cc2ccc(O)cc2)C(=O)N[C@@H](CC(C)C)C(=O)N[C@@H](CCCNC(=N)N)C(=O)N1)[C@@H](C)CC)C(=O)N[C@@H](CCCNC(=N)N)C(=O)N[C@@H](CCCCN)C(=O)N[C@@H](C)C(=O)N[C@@H](CCC(N)=O)C(=O)N[C@@H](CCC(=O)O)C(=O)N[C@@H](CCC(N)=O)C(=O)N[C@@H](CCC(N)=O)C(=O)N[C@@H](CCC(=O)O)C(=O)N[C@@H](CCCCN)C(=O)N[C@@H](CC(N)=O)C(=O)N[C@@H](CCC(=O)O)C(=O)N[C@@H](C)C(=O)N[C@@H](C)C(=O)N[C@@H](CC(C)C)C(=O)N[C@@H](CCCNC(=N)N)C(=O)NCC(=O)N[C@@H](CO)C(=O)NCC(=O)N[C@@H](CSCC(=O)O[C@H]1CC[C@@]2(C)C(=CC[C@H]3[C@@H]4CC[C@H]([C@H](C)CCCC(C)C)[C@@]4(C)CC[C@@H]32)C1)C(N)=O
B10: peptide 83 (peptide)
peptide: Ac-ACYAA[dC]IEALIRAAQEQQEKNEAALR-NH2
modifications: linker 2-6 via pXylylene; not fully specified
B11: peptide 86 (peptide)
peptide: Hexanoyl-ECYLACIEELIRKAQEQQEKNEAALR-NH2
modifications: linker 2-6 via pXylylene
SMILES: CCCCCC(=O)N[C@@H](CCC(=O)O)C(=O)N[C@H]1CSCc2ccc(cc2)CSC[C@@H](C(=O)N[C@H](C(=O)N[C@@H](CCC(=O)O)C(=O)N[C@@H](CCC(=O)O)C(=O)N[C@@H](CC(C)C)C(=O)N[C@H](C(=O)N[C@@H](CCCNC(=N)N)C(=O)N[C@@H](CCCCN)C(=O)N[C@@H](C)C(=O)N[C@@H](CCC(N)=O)C(=O)N[C@@H](CCC(=O)O)C(=O)N[C@@H](CCC(N)=O)C(=O)N[C@@H](CCC(N)=O)C(=O)N[C@@H](CCC(=O)O)C(=O)N[C@@H](CCCCN)C(=O)N[C@@H](CC(N)=O)C(=O)N[C@@H](CCC(=O)O)C(=O)N[C@@H](C)C(=O)N[C@@H](C)C(=O)N[C@@H](CC(C)C)C(=O)N[C@@H](CCCNC(=N)N)C(N)=O)[C@@H](C)CC)[C@@H](C)CC)NC(=O)[C@H](C)NC(=O)[C@H](CC(C)C)NC(=O)[C@H](Cc2ccc(O)cc2)NC1=O

Starred links: 1 amine or outer side, 2 acyl side, 3 side chain; linkers in the order of their positions; H or OH if unused. Positions of bridges follow the written chain, without caps; N, C: chain ends. Non-standard residues stand in square brackets, D forms with d. *: point of attachment. cholesteryl‑oxycarbonylmethyl = CC(C)CCC[C@@H](C)[C@H]1CC[C@H]2[C@@H]3CC=C4C[C@@H](OC(=O)C*)CC[C@]4(C)[C@H]3CC[C@]12C; B21 = 2,7-dimethylnaphtyl, c1cc2ccc(C[*:2])cc2cc1C[*:1]; pXylylene = c1cc(C[*:2])ccc1C[*:1]; Palmitoyl = CCCCCCCCCCCCCCCC(=O)*; Suc = O=C(CCC(=O)[*:2])[*:1]; hCys = N[C@@H](CCS)C(=O)O; Hexanoyl = CCCCCC(=O)*; Pentanoyl = CCCCC(=O)*; Butyryl = CCCC(=O)*

The target in this test is gp41 of HIV-1 strain HXB2D with mutation V38A (HIV-1 strain HXB2D, UniProt P04578). Description: cell-based or functional assay.
For the molecule B1, the “fold change in EC50, HIV-HXB2D V38A mutant” value (shortened to “fold change in EC50”) turned out to be 3 fold.

For the molecule B2, the “fold change in EC50” value was 1 fold.

Regarding B3, the “fold change in EC50” value stood at 53 fold.

On to B4, for which the “fold change in EC50” value is 40 fold.

For B5, the “fold change in EC50” value amounted to 2 fold.

Take B6: the “fold change in EC50” value was determined as 75 fold.

Take B7: the “fold change in EC50” value came to 6 fold.

As to B8, the “fold change in EC50” value turned out to be 9 fold.

As to B9, the “fold change in EC50” value amounted to 1 fold.

As for B10, the “fold change in EC50” value is 6 fold.

As for B11, the “fold change in EC50” value came to 2 fold.
